Data published in doi:10.1101/2024.10.06.616194.

Measured: catalytic (cyclization) activity of the GpeC mutant relative to the wild type

WFWMLYHHM [SGpeA2 (minimal 9-mer substrate)]
> 50%: GpeC F214A | GpeC R160A | GpeC Y163A | GpeC R152A
